From patent US20200283478A1 (Genentech, published 2020) come the findings set out here.

Bridge positions count the residues as written; N and C are the ends. * marks the point of attachment. Fmoc = O=C(OCC1c2ccccc2-c2ccccc21)*; Pentanoyl = CCCCC(=O)* Where only a bound is given, the exact number is not on record here.

Assay [1] deals with T1, proprotein convertase subtilisin/kexin type 9 (PCSK9) (human, UniProt Q8NBP7 31-692).
T1 construct: His-tagged full-length PCSK9 in TR-FRET and SPR, biotinylated in phage ELISA; secreted protein is autoprocessed (prodomain plus catalytic/CRD chain starting at S153); also called rec.PCSK9; His-PCSK9
Nature of the assay: phage spot ELISA.

For assay [2], the target named is T2, PCSK9Δhelix (human, Chemically biotinylated in the phage ELISAs; the site is not given.).
T2 construct: construct M1-Q692 with engineered TEV site, cleaved by TEV; also called His-PCSK9Δhelix; open groove PCSK9Δhelix
The assay is described as follows: phage spot ELISA.

For assay [3], the target named is T3, PCSK9 (proprotein convertase subtilisin/kexin type 9), His-tagged, full-length (human, UniProt Q8NBP7 31-692).
T3 construct: Captured by the His tag (SPR Methods 1 and 2), amine-coupled (Method 3), or His-tagged in TR-FRET; also called His-PCSK9
The assay is described as follows: TR-FRET competition; competitor EGF(A)-Fc binding to His-PCSK9.

Assay [4] addresses T4, PCSK9Δhelix (human, UniProt Q8NBP7 31-152; Q8NBP7 168-692).
T4 construct: Made by TEV cleavage of human PCSK9 M1-Q692 with an engineered TEV site; The new N-terminus of the catalytic domain is S-A168; also called His-PCSK9Δhelix; PCSK9 lacking the P' helix
The assay is described as follows: TR-FRET competition; competitor Ab20 binding to His-PCSK9Δhelix.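 Further: readout is anti-His-APC on PCSK9 with anti-Fc-europium on the Fc-tagged ligand, compound incubated 30 min, normalized signal ratio fitted by four-parameter logistic regression.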

In another assay the target is T5, His-tagged PCSK9Δhelix (human, UniProt Q8NBP7 31-152; Q8NBP7 168-692).
T5 construct: Human PCSK9 M1-Q692 with an engineered TEV site, cut by TEV protease; new N-terminus of the catalytic domain is S-A168; also called His-PCSK9Δhelix; not shown: His tag
The assay is described as follows: TR-FRET competition (PCSK9Δhelix/Ab20 assay); competitor Ab20.

Assay [5] has as its target T6, His-tagged, full-length PCSK9 (human, UniProt Q8NBP7 31-692).
T6 construct: secreted PCSK9 is autocatalytically cleaved into prodomain and catalytic domain + CRD (from S153), which stay associated; also called His-PCSK9; proprotein convertase subtilisin/kexin type 9; not shown: His tag
Nature of the assay: TR-FRET competition (PCSK9/EGF(A) assay); competitor EGF(A)-Fc.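 Further: proximity signal from anti-His APC on PCSK9 paired with anti-Fc europium on the Fc ligand, read as normalized TR-FRET ratio across compound dilutions.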

T1 sequence (Q8NBP7 other isoform, or with tags, fused parts or gaps limits assumed): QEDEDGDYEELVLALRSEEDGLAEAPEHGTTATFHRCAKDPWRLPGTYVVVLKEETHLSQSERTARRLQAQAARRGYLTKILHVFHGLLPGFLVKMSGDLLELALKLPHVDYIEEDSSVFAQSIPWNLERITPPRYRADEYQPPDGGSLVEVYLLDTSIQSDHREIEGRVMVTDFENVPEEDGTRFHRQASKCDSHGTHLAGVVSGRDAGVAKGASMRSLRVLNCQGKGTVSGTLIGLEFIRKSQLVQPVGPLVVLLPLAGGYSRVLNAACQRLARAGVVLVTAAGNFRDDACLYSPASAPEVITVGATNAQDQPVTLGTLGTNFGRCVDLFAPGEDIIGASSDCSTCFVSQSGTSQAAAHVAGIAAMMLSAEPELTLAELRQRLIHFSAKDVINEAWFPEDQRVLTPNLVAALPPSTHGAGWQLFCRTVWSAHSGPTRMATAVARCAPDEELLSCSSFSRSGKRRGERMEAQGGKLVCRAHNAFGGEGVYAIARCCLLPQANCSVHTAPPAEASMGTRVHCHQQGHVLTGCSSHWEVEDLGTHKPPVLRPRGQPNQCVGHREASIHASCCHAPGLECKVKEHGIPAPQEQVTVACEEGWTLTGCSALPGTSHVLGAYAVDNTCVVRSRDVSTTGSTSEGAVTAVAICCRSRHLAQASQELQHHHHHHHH
T2 sequence (prodomain, as listed by the source mutant limits assumed, chain 1 of 2): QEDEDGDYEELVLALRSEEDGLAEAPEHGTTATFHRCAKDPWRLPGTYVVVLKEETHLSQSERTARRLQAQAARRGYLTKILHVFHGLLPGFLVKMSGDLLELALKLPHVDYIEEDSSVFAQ
T2 sequence (chain, as listed by the source mutant limits assumed, chain 2 of 2): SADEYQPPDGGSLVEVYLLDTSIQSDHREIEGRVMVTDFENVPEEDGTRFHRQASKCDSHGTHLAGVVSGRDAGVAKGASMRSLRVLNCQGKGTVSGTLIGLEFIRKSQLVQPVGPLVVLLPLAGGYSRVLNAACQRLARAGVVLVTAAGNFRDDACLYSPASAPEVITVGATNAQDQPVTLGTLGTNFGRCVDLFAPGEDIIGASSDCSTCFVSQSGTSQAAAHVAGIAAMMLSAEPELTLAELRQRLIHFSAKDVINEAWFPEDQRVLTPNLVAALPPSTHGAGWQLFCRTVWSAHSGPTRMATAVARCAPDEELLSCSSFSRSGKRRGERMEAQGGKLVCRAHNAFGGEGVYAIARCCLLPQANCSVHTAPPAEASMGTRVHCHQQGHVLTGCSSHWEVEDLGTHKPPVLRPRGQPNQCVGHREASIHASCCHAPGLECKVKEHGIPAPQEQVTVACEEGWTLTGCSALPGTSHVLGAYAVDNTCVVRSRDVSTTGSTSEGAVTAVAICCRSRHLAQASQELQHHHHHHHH
T4 sequence (Q8NBP7 31-152, stated change not applied, chain 1 of 2): as the sequence (prodomain, as listed by the source mutant limits assumed, chain 1 of 2) above
T4 sequence (Q8NBP7 other isoform, or with tags, fused parts or gaps mutant, chain 2 of 2): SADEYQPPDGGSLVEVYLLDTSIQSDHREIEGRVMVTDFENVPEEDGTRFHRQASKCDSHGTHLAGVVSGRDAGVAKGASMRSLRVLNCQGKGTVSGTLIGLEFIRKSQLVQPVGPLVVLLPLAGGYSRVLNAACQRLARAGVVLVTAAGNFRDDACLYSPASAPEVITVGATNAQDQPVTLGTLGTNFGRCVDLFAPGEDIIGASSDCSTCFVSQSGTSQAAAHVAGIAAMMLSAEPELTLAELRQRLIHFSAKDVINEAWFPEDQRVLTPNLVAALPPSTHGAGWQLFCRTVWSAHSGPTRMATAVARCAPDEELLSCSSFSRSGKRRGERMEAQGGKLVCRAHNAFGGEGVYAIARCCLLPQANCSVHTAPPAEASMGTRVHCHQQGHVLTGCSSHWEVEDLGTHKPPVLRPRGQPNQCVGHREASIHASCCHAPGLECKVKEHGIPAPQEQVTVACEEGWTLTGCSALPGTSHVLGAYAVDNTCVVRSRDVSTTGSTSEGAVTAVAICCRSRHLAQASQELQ
T5 sequence (Q8NBP7 31-152, stated change not applied, chain 1 of 2): as the sequence (prodomain, as listed by the source mutant limits assumed, chain 1 of 2) above
T5 sequence (Q8NBP7 other isoform, or with tags, fused parts or gaps mutant, chain 2 of 2): as the sequence (Q8NBP7 other isoform, or with tags, fused parts or gaps mutant, chain 2 of 2) above
T6 sequence (Q8NBP7 31-692 limits assumed): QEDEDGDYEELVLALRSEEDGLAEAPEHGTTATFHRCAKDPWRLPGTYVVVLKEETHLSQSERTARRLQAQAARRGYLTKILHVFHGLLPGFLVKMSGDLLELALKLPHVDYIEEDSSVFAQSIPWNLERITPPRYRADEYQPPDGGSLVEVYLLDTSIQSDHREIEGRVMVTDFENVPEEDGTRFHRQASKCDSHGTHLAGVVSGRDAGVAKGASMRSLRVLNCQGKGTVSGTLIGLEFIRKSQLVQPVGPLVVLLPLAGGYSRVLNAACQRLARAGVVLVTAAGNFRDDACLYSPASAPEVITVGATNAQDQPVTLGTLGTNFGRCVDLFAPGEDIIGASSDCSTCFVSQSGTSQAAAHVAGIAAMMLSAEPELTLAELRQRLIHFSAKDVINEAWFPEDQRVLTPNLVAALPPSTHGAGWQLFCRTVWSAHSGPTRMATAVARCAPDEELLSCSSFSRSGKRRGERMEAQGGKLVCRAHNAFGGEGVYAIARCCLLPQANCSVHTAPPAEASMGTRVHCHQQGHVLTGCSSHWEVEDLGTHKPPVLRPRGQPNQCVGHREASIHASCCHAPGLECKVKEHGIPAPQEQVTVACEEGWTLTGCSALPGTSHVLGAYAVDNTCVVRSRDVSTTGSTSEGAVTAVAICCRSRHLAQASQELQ
T3 sequence (Q8NBP7 31-692 limits assumed): as above

In assay [1], SGMVYVDRGVRVFT [SEQ ID NO 368] showed an ELISA of 0.893 and a s/n of 8.5. In the assay with PCSK9Δhelix [2], this molecule showed an ELISA of 1.01 and a s/n of 10.2.
In the same order, the values of SGAGKLDLSG [SEQ ID NO 377] are 2.87, 11.1, 1.75 and 4.17.
For the molecule SGTPEMPAML [SEQ ID NO 374], in assay [1], the ELISA came out at 3.01 and the s/n was 5.74. In the assay with PCSK9Δhelix [2], this molecule came in with an ELISA of 2.25 and a s/n of 8.06.
On the same counts, the results for SGPRTYLRGLVD [SEQ ID NO 366] are 0.355, 3.1, 0.375 and 3.44.
Take Ac-DLMPWNLVRIGLLR-NH2 [Compound 35]: the IC50 is over 50 µM in assay [3] and 4.8 µM in the assay with PCSK9Δhelix [4].
On the same counts, the results for Ac-DLMPWNLVRIGALR-NH2 [Compound 56] are over 50 µM and 17.1 µM.
On the same counts, the results for Ac-DLMAWNLVRIGLLR-NH2 [Compound 42] are over 50 µM and 28.5 µM.
For Ac-DLAPWNLVRIGLLR-NH2 [Compound 43], the IC50 was over 50 µM in assay [3] and 8.19 µM with PCSK9Δhelix [4].
In the same order, the values of Ac-DLMPWNLVRIGLLA-NH2 [Compound 54] are over 50 µM and 15.4 µM.
On the same counts, the results for Ac-DAMPWNLVRIGLLR-NH2 [Compound 44] are over 50 µM and 6.9 µM.
For the molecule Ac-DLMPANLVRIGLLR-NH2 [Compound 41], the IC50 in assay [3] was over 50 µM; with PCSK9Δhelix [4] it was 49.5 µM.
In assay [1], SGSYRGAWSVFGGSTD [SEQ ID NO 372] gave an ELISA of 1.09 and a s/n of 5.15. In the assay with PCSK9Δhelix [2], this molecule showed an ELISA of 1.04 and a s/n of 7.68.

B1: Compound 113 (peptide)
peptide: Pentanoyl-WNLVRIGTTR-NH2
SMILES: CCCCC(=O)N[C@@H](Cc1c[nH]c2ccccc12)C(=O)N[C@@H](CC(N)=O)C(=O)N[C@@H](CC(C)C)C(=O)N[C@H](C(=O)N[C@@H](CCCNC(=N)N)C(=O)N[C@H](C(=O)NCC(=O)N[C@H](C(=O)N[C@H](C(=O)N[C@@H](CCCNC(=N)N)C(N)=O)[C@@H](C)O)[C@@H](C)O)[C@@H](C)CC)C(C)C
B1 returned an IC50 in assay [3] of over 50 µM.

B2: Compound 114 (peptide)
peptide: Pentanoyl-WNLVRIGTLR-NH2
SMILES: CCCCC(=O)N[C@@H](Cc1c[nH]c2ccccc12)C(=O)N[C@@H](CC(N)=O)C(=O)N[C@@H](CC(C)C)C(=O)N[C@H](C(=O)N[C@@H](CCCNC(=N)N)C(=O)N[C@H](C(=O)NCC(=O)N[C@H](C(=O)N[C@@H](CC(C)C)C(=O)N[C@@H](CCCNC(=N)N)C(N)=O)[C@@H](C)O)[C@@H](C)CC)C(C)C
Molecule B2 had an IC50 in assay [3] of over 50 µM.
On to SGGSIPWNLERITPPR [SEQ ID NO 382], for which, in assay [1], the ELISA was 1.41 and the s/n stood at 5.32. In the assay with PCSK9Δhelix [2], this molecule showed an ELISA of 1.64 and a s/n of 9.01.
In the same order, the values of SGHASKGMVLSG [SEQ ID NO 381] are 2.49, 15.5, 1.64 and 7.52.
On the same counts, the results for SGDTRSQLSH [SEQ ID NO 376] are 2.57, 11.9, 1.24 and 11.3.

B3: Compound 39 (Ac-CWNLKRIGSQGCW-NH2) (peptide)
peptide: Ac-CWNLKRIGSQGCW-NH2
modifications: disulfide 1-12
SMILES: CC[C@H](C)[C@@H]1NC(=O)[C@H](CCCNC(=N)N)NC(=O)[C@H](CCCCN)NC(=O)[C@H](CC(C)C)NC(=O)[C@H](CC(N)=O)NC(=O)[C@H](Cc2c[nH]c3ccccc23)NC(=O)[C@@H](NC(C)=O)CSSC[C@@H](C(=O)N[C@@H](Cc2c[nH]c3ccccc23)C(N)=O)NC(=O)CNC(=O)[C@H](CCC(N)=O)NC(=O)[C@H](CO)NC(=O)CNC1=O
B3: the IC50 with His-tagged PCSK9Δhelix was 37.5 µM; in assay [5] it was over 50 µM.
In the case of SGLAPTVSDS [SEQ ID NO 375], in assay [1], the ELISA stood at 0.119 and the s/n turned out to be 1.23. For the same molecule, in the assay with PCSK9Δhelix [2], the ELISA turned out to be 0.55 and the s/n stood at 4.33.
In assay [1], SGRNGSGYINRGIEIW [SEQ ID NO 380] had an ELISA of 0.447 and a s/n of 3.85. In the assay with PCSK9Δhelix [2], this molecule yielded an ELISA of 0.638 and a s/n of 5.5.
In assay [1], SGVCSDHYIGGKEVRC [SEQ ID NO 378] had an ELISA of 1.12 and a s/n of 6.19.
For SGNALWNHDRLT [SEQ ID NO 379], the ELISA in assay [1] stood at 0.591; in the assay with PCSK9Δhelix [2], 0.665. In addition, the results for the s/n (in assay [1]; with PCSK9Δhelix [2]) were 6.42 and 7.07, respectively.

B4: Compound 40 (Ac-GSG-CWNLKRIGSQGCW-NH2) (peptide)
peptide: Ac-GSGCWNLKRIGSQGCW-NH2
modifications: disulfide 4-15
SMILES: CC[C@H](C)[C@@H]1NC(=O)[C@H](CCCNC(=N)N)NC(=O)[C@H](CCCCN)NC(=O)[C@H](CC(C)C)NC(=O)[C@H](CC(N)=O)NC(=O)[C@H](Cc2c[nH]c3ccccc23)NC(=O)[C@@H](NC(=O)CNC(=O)[C@H](CO)NC(=O)CNC(C)=O)CSSC[C@@H](C(=O)N[C@@H](Cc2c[nH]c3ccccc23)C(N)=O)NC(=O)CNC(=O)[C@H](CCC(N)=O)NC(=O)[C@H](CO)NC(=O)CNC1=O
As to B4, the half-inhibitory concentration (IC50) with His-tagged PCSK9Δhelix was 2.41 µM; in assay [5] it was 5.96 µM.
In assay [1], SGEHQFYSYRGVDVYR [SEQ ID NO 370] yielded an ELISA of 0.458 and a s/n of 1.45. Further, in the assay with PCSK9Δhelix [2], the ELISA was found to be 0.461 and the s/n is 3.71.
On the same counts, the results for SGACLNHFVSGNMIRC [SEQ ID NO 371] are 0.607, 5.19, 0.649 and 5.55.
In assay [1], SGGCVKYRGSVSCQESKT [SEQ ID NO 369] displayed an ELISA of 0.373 and a s/n of 3.32. In the assay with PCSK9Δhelix [2], this molecule yielded an ELISA of 0.378 and a s/n of 3.37.
In assay [1], SGCWTYLRGGCSVT [SEQ ID NO 373] showed an ELISA of 0.487 and a s/n of 4.39. In the assay with PCSK9Δhelix [2], this molecule showed an ELISA of 0.569 and a s/n of 5.37.
In the same order, the values of SGNCWSSLRGICENLG [SEQ ID NO 367] are 0.609, 1.47, 0.601 and 5.2.

B5: Compound 98 (Fmoc-GSG-CWNLKRIGSQGC-NH2) (peptide)
peptide: Fmoc-GSGCWNLKRIGSQGC-NH2
modifications: disulfide 4-15
SMILES: CC[C@H](C)[C@@H]1NC(=O)[C@H](CCCNC(=N)N)NC(=O)[C@H](CCCCN)NC(=O)[C@H](CC(C)C)NC(=O)[C@H](CC(N)=O)NC(=O)[C@H](Cc2c[nH]c3ccccc23)NC(=O)[C@@H](NC(=O)CNC(=O)[C@H](CO)NC(=O)CNC(=O)OCC2c3ccccc3-c3ccccc32)CSSC[C@@H](C(N)=O)NC(=O)CNC(=O)[C@H](CCC(N)=O)NC(=O)[C@H](CO)NC(=O)CNC1=O
As to B5, the IC50 in the assay with His-tagged PCSK9Δhelix turned out to be 3.6 µM; in assay [5], 37.6 µM.
